We go through two molecules from patent publication US20060258842A1 (IQ THERAPEUTICS, published 2006).

For orientation: Kd means the constant that tells how readily two partners part at equilibrium. Read a low Kd as higher affinity. As a reminder, the koff is a measure of how fast the partners let go of each other. Low values mean slow dissociation, high ones fast dissociation. Usually kon stands for the second-order rate constant of association. A low value points to slower complex formation.

Assay [1] has as its target Bacillus anthracis Protective Antigen (Bacillus anthracis, UniProt P13423 30-764). Nature of the assay: SPR (BIAcore 3000), PA amine-coupled to CM5 chip, antibody as analyte.
For assay [2], the target named is T1, GST fusion of protective antigen domain 1 (Bacillus anthracis, UniProt P13423 30-287).
T1 construct: domain: 1
Kind of assay: ELISA, plate coated with GST-PA domain protein, goat anti-human IgG HRP. (ELISA stands for enzyme-linked immunosorbent assay.)

In assay [3] the target is T2, GST fusion of protective antigen domains 1 to 2 (Bacillus anthracis, UniProt P13423 30-516).
T2 construct: domain: 1 to 2
Described as above.

Assay [4] deals with T3, GST fusion of protective antigen domains 1 to 3 (Bacillus anthracis, UniProt P13423 30-624).
T3 construct: domain: 1 to 3
Described as above.

Assay [5] deals with T4, GST fusion of protective antigen domains 1 to 4 (Bacillus anthracis, UniProt P13423 30-764).
T4 construct: domain: 1 to 4
The description is as above.

Assay [6] concerns the target T5, GST fusion of protective antigen domains 3 to 4 (Bacillus anthracis, UniProt P13423 517-764).
T5 construct: domain: 3 to 4
Described as above.

In assay [7] the target is T6, GST fusion of protective antigen domain 4 (Bacillus anthracis, UniProt P13423 625-764).
T6 construct: domain: 4
Described as above.

Sequence of Bacillus anthracis Protective Antigen (P13423 30-764 limits assumed): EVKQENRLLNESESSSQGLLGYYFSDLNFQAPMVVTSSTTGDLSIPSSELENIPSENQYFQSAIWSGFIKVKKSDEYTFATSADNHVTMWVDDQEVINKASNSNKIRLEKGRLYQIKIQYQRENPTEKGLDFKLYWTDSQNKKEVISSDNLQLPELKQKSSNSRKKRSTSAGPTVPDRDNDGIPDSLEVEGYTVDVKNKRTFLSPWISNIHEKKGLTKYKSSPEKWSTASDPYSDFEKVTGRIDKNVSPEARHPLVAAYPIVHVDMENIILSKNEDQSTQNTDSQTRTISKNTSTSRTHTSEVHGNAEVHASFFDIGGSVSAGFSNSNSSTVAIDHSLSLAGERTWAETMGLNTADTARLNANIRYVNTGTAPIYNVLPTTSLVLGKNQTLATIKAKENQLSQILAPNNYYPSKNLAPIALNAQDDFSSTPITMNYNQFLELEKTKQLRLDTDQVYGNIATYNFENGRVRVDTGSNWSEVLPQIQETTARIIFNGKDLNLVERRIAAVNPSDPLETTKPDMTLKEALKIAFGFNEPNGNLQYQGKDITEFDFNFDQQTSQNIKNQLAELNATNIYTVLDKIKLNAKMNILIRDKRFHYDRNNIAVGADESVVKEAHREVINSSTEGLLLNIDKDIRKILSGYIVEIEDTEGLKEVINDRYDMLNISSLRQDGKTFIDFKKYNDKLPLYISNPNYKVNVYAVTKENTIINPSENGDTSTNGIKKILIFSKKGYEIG
T6 sequence (P13423 625-764 limits assumed): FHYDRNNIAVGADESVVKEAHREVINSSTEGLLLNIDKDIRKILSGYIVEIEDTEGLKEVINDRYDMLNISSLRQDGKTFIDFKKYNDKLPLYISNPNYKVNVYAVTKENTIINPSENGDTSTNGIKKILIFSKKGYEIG
T5 sequence (P13423 517-764 limits assumed): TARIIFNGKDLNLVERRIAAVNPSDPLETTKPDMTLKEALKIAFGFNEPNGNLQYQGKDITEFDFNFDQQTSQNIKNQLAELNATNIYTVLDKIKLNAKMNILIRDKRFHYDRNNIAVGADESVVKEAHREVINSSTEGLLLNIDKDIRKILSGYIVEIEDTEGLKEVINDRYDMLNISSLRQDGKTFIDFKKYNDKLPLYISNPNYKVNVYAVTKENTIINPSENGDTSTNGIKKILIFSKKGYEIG
T4 sequence (P13423 30-764 limits assumed): as the sequence (P13423 30-764 limits assumed) above
T3 sequence (P13423 30-624 limits assumed): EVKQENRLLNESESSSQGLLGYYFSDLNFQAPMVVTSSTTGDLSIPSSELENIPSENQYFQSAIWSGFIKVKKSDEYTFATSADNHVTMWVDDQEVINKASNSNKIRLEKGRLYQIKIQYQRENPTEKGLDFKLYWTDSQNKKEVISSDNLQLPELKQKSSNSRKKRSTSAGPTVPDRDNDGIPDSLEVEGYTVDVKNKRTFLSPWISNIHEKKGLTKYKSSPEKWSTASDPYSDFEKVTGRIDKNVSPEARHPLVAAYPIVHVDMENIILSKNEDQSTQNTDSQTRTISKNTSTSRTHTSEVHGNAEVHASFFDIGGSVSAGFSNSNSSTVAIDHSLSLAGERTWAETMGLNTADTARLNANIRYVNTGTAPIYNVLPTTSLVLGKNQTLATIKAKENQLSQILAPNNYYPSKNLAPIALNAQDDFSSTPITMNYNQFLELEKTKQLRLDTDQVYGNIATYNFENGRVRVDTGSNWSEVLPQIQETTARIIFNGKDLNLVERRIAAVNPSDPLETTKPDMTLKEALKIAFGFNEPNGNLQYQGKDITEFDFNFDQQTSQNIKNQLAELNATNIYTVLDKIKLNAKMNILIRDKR
T2 sequence (P13423 30-516 limits assumed): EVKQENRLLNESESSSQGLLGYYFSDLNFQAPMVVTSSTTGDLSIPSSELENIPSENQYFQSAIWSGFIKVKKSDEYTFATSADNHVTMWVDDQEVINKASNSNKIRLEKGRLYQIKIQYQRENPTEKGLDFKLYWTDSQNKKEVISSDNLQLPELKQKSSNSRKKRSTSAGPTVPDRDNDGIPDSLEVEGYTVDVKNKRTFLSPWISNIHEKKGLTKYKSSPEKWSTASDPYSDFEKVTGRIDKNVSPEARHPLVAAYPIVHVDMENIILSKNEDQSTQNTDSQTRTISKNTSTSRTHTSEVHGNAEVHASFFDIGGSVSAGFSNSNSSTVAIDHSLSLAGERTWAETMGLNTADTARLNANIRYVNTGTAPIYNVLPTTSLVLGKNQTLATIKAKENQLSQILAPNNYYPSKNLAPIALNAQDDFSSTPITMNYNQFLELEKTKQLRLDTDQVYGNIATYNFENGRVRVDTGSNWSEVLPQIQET
T1 sequence (P13423 30-287 limits assumed): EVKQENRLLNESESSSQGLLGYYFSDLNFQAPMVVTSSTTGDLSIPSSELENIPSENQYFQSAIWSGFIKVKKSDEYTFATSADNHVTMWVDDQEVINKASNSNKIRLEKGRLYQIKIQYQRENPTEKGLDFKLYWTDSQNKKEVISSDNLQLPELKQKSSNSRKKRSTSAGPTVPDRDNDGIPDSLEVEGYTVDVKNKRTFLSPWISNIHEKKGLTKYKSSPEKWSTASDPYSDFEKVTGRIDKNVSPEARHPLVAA

B1: human monoclonal antibody IQNPA-1 (antibody, V domains shown)
VH: QVQLVQSGAEVKKPGASVKVSCKASGYTFTSNAIQWVRQAPGQRLEWVGWINGGDGNTKYSQKFQGRVTISRDISASTAYMELSSLRSEDTAVYYCARHRLQRGGFDPWGQGTLVTVSS
VL: EIVLTQSPGTLSLSPGERATLSCRASQSVSYSSLAWYQQKPGQAPSLLIYGASSRATGIPDRFSGSGSGPDFTLTISRLEPEDFAVYYCQHYGNSPYTFGQGTKLEIKR
On to B1, for which the Ka in assay [1] came to 8.31e+09 M⁻¹. Besides, the Kd in assay [1] turned out to be 0.12 nM. The koff in assay [1] worked out at 1.93e-05 s⁻¹. Besides, the kon in assay [1] worked out at 160000 M⁻¹ s⁻¹. The End point titre was less than 100 in assay [2]; less than 100 in assay [3]; less than 100 in assay [4]; 256000 in assay [5]; 256000 in assay [6]; 256000 in assay [7].

B2: human monoclonal antibody IQNPA-2 (antibody, V domains shown)
VH: B1 VH
VL: B1 VL
As to B2, in assay [1], the Ka stood at 9.86e+09 M⁻¹. For the same molecule, the equilibrium dissociation constant (Kd) in assay [1] was 0.101 nM. In addition, in assay [1], the koff was 1.81e-05 s⁻¹. This molecule also showed a kon in assay [1] of 178000 M⁻¹ s⁻¹. The End point titre is less than 100 in assay [2]; less than 100 in assay [3]; less than 100 in assay [4]; 128000 in assay [5]; 256000 in assay [6]; 128000 in assay [7].
